From patent publication US11484554B2, “Pancreatic cells for treating diabetes and methods of generating the same” (Seraxis, Inc., priority 2018, dated 2022)
Entries after “also recorded” stand apart in the source; their conditions may differ.

What was measured:
Assay type in all cases: cell-based, human
[1] = test system: SR1423 cells; assay: Glucagon added to the culture media during differentiation
Method: A second batch of SR1423 cells were seeded at 6.3×10^4 as described above and allowed to grow for 18-24 hours. […]

[2] = test system: SR1423 cells; assay: Impact of KGF at earlier stages of differentiation, SR1423; settings: KGF at earlier stages of differentiation (early endoderm)
Method: Differentiation: A first batch of SR1423 cells were seeded at 2.3×10^4 cells/cm^2 and allowed to grow for 18-24 hours. Cells were then washed with dPBS (—Mg^2+/—Ca^2+) and medium was changed following a 28 day schedule comprised of 6 media formulation as follows: Days 1, 2, 3: DMEM/F-12 medium (Life Technologies #10565018), 0.2% HSA, 1XB27 supplement (Life Technologies #A1486701), 100 ng/ml Activin A and 1 uM Wortmannin; Days 4, 5, 6, 7: DMEM (Life Technologies #10567014), 0.2% HSA, 1XB27 supplement, 4 uM Retinoic Acid, 50 ng/ml KGF, 50 ng/ml Noggin, 0.25 uM Cyclopamine KAAD; Days 8, 10: DMEM, 0.2% HSA, 1XB27 supplement, 50 ng/ml KGF, 50 ng/ml Noggin, 50 ng/ml EGF; Days 12, 14: DMEM, 0.2% HSA, 1XB27 supplement, 50 ng/ml Noggin, 50 ng/ml EGF, 1 uM γ-secretase inhibitor XXI, 10 uM Alk5i II, 1 uM T3; Days 16, 18: DMEM, 0.2% HSA, 1XB27 supplement, 10 uM Alk5i II, 1 uM T3, 100 nM Retinoic Acid; Days 20, 22, 24, 26, 28: CMRL (Life Technologies #11530037), 0.2% HSA, 1× B27 supplement, 1× glutamax (Life Technologies # 35050061), 10 uM Alk5i II, 1 uM T3, 10 mM Nicotinamide, 50 ng/ml IGF-I, 10 ng/ml BMP4. For differentiations with the addition of a second stage employing KGF, medium on days 4, 5, 6 with DMEM, 0.2% BSA, 1XB27 supplement, and 50 ng/ml KGF was inserted into the schedule shifting the remaining stages three days later. […]

[3] = test system: embryonic stem cell line BGO1V; assay: Impact of KGF at earlier stages of differentiation, BGO1V

## glucagon: peptide hormone added to the sixth differentiation medium
[1]
  amount of cells that co-express insulin and glucagon: reducing the amount of cells that co-express insulin and glucagon; also recorded: reduces the amount of cells that co-express insulin and glucagon

B1: KGF: keratinocyte growth factor used as differentiation factor in culture medium (protein, UniProt P21781 32-194, looked up)
Fibroblast growth factor 7: CNDMTPEQMATNVNCSSPERHTRSYDYMEGGDIRVRRLFCRTQWYLRIDKRGKVKGTQEMKNNYNIMEIRTVAVGIVAIKGVESEFYLAMNKEGKLYAKKECNEDCNFKELILENHYNTYASAKWTHNGGEMFVALNQKGIPVRGKKTKKEQKTAHFLPMAIT
[2]
  production of pancreatic and insulin-producing cells: marked reduction
[3]
  production of pancreatic and insulin-producing cells: matching results
